Results: patent publication US20100129347A1, “HERPES VIRUS INFECTION INHIBITOR, METHOD FOR INHIBITING INFECTION WITH HERPES VIRUS, AND USE THEREOF” (Osaka University, priority 2007, published 2010)

Tested on: HSV-1
Assay: HSV-1-GFP infection of CHO-K1 cells transfected with human PILR, ratio of infected cells by flow cytometry
Format: cell-based
Conditions: various concentrations, FIG. 3
Experimental: CHO-K1 cells were transiently transfected in a 10% FCS-containing F-12 culture medium using Lipofectamine 2000 (produced by Invitrogen) or GeneJuice (produced by Novagen). 1 day after the transfection, the 10% FCS-containing F-12 culture medium was replaced with a 1% FCS-containing F-12 culture medium. 2 days after the transfection, the transfectant was mixed with HSV-GFP and centrifuged at 32° C. at 2500 rpm for 2 hours. Thus, the transfectant was infected with HSV-GFP.
Human PILR was transiently transfected to the CHO-K1 cells by using pMx-IRES-DsRed expression vector, and the CHO-K1 cells were caused to be infected with HSV-1 by using HSV-1-GFP in the presence of anti-human PILR mAb with various concentrations or control mAb. The ratio of HSV-1-infected cells was analyzed by flow cytometry.
The CHO-K1 cells to which PILR had been transfected were caused to be infected with HSV-1 in the presence of PILR-Ig with various concentrations or Ig-fused protein without PILR that was a control. The ratio of the infected cells was analyzed by flow cytometry. Since PILR-Ig directly binds to gB of HSV-1, it is considered that there is a possibility that PILR-Ig blocks interaction between HSV-1 and PILR on the surface of a cell.

B1: control Ig-fused protein: Ig-fused protein without PILR used as control; purified human CD200-Ig fusion protein (protein)
chain: QVQVVTQDEREQLYTPASLKCSLQNAQEALIVTWQKKKAVSPENMVTFSENHGVVIQPAYKDKINITQLGLQNSTITFWNITLEDEGCYMCLFNTFGFGKISGTACLTVYVQPIVSLHYKFSEDHLNITCSATARPAPMVFWKVPRSGIENSTVTLSHPNGTTSVTSILHIKDPKNQVGKEVICQVLHLGTVTDFKQTVNKG
modifications: left off: a dimerising Fc or GST
- blocking of HSV-1 infection of PILR-transfected CHO-K1 cells: not blocked
